Results on 138 substances are retold here after the supplement of paper PMC12042874.

A short description of the data set: amyloid nucleation score (Sup35N fusion, yeast selection) (log enrichment); library NNK2; higher = more nucleation; inactive = no reads after selection. The essentials:
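DiMSum was used to calculate nucleation scores as log enrichment of output over input reads, centred on the mode score of non-aggregating sequences. Sequences with fewer than 100 input reads were not scored. Input and output came from Illumina sequencing of plasmid inserts in psi-negative yeast expressing peptides of 20 random codons fused to Sup35N, induced 24 hours with 100 μM copper sulfate and then grown 7 days at 30°C on medium lacking adenine and uracil.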

± gives the uncertainty stated by the source.

For HAMWCFGFIVLGGGNDIRIW, the amyloid nucleation score was found to be 8.219 ± 0.045.
PSWDDFSSPEVS came in with an amyloid nucleation score of -0.524 ± 0.39.
Consider FTIYCSYIFCQCWDTSEKSK, for which the amyloid nucleation score was found to be 8.593 ± 0.044.
With TFCICPFNAEV the figure was 7.35 ± 0.029; with MSICANLVLWWLDL, -0.607 ± 0.63.
As for CFIRHISGK, the amyloid nucleation score is -0.315 ± 0.63.
With LYAECFYATILNGDECRWRT, the amyloid nucleation score is 0.344 ± 0.31.
In the case of CNRMGFHMFDCF, the amyloid nucleation score entry was “inactive”.
The same measure for SVVFDYCSGIVSRY: -0.483 ± 1.1.
In turn, ATYAGMFMEEMPEHYFVWGT registered an amyloid nucleation score of 0.356 ± 0.74.
For SPYAFACAGCSGVKG, the amyloid nucleation score came out at 0.234 ± 0.26.
As to RKPMLFLRYF, the amyloid nucleation score result is “inactive”.
For TNRGSQNGLMFFDRSWKGYG, the amyloid nucleation score was -0.467 ± 0.5.
The same measure for LAGRC: 0.968 ± 0.56; for YDNSYNWTATTFFGSRPDQS: 4.55 ± 0.048; for YLSGLIIS: -0.593 ± 1.1.
The substance YNMMLSVWDSYVLLVECVME yielded an amyloid nucleation score of -0.801 ± 0.31.
For HIWTEVFIYVCSWRLYTTRV, the amyloid nucleation score was -1.48 ± 0.64.
With YCMLCQGWDGICLPEVSAVW, the amyloid nucleation score is 0.146 ± 0.29.
Take WTCDCSLKVFCNM: the amyloid nucleation score is 4.91 ± 0.056.
In turn, HTSSLF showed an amyloid nucleation score of -0.156 ± 0.3.
The substance RSLGTRAFAVRFRTSCWINV gave an amyloid nucleation score of -0.317 ± 0.46.
With FHYRFFVVMIRGCSFWHFQL the figure was -1.57 ± 0.49; with YVYTLGI, -0.337 ± 1.1.
Take YDLDEGYSLMFVPQEQICAE: the amyloid nucleation score entry is “inactive”.
As for SARFIIIWNWALSPRPRRCE, the amyloid nucleation score stood at 7.561 ± 0.041.
With SIYFKVIATTSVYRLMPTVW the figure was -0.291 ± 0.74; with PMNFYYIAPNICGLREKLWS, 3.62 ± 0.064.
For VRFTLYGCWGLMFFTMVGR, the amyloid nucleation score result is “inactive”.
With NFGLEELTGKIGGRTC, the amyloid nucleation score stood at 1.04 ± 0.23.
Take QVALGNVCNRLYTLMARQAN: the amyloid nucleation score was -0.283 ± 0.26.
As to VVNKLF, the amyloid nucleation score result is “inactive”.
Regarding VLAHNSGWNGTKETYCMSNG, the amyloid nucleation score is -0.436 ± 0.54.
Consider WQCKLPSNYGFGTK, for which the amyloid nucleation score worked out at 0.11 ± 0.77.
DQKAIVMVRNLDAWVGCAHY showed an amyloid nucleation score of 0.266 ± 0.46.
As to VCSNCNMDVTSYQASCKAYL, the amyloid nucleation score was 0.783 ± 0.53.
With NLLLLTVRKLNAVNMSTPPY, the amyloid nucleation score is 2.05 ± 0.21.
For the substance NCSSTIDFLFNLIHILKNF, the amyloid nucleation score result is “inactive”.
NDSSLCSSVRPIRMREEFDK: the amyloid nucleation score was -0.099 ± 0.25.
On to WSDSFTCDCGKLITTSSRLS, for which the amyloid nucleation score turned out to be 2.02 ± 0.15.
Consider LISWFWWENLKLCCSIFCFI, for which the amyloid nucleation score is 4.4 ± 0.051.
Regarding TNSSRISLNLGVLRGAQKDS, the amyloid nucleation score is -1.08 ± 0.45.
The same measure for CARYLIEVRYKGKKIQYSM: -0.837 ± 0.39; for GHLLASKLLQSSYETCS: 0.286 ± 0.62; for PVHSAVATVLTLVNGKIGGA: 1.24 ± 0.48.
For DQDSNSFAQSVVSHNVLVNI, the amyloid nucleation score result is “inactive”.
For TFHGNYFVDTSA, the amyloid nucleation score entry is “inactive”.
VVRMRENKRNIL: the amyloid nucleation score entry was “inactive”.
Regarding SLFDFAVFNMNYESNACISR, the amyloid nucleation score stood at 0.451 ± 0.27.
The substance LLKKRANGYHYSKNLKCPAR registered an amyloid nucleation score of -1.29 ± 1.1.
As for HMNFRWLYMSIYVISLLEAL, the amyloid nucleation score result is “inactive”.
With YLWDTIYIDLSVLLVLATSW the figure was 0.21 ± 0.54; with VCGVNV, -0.363 ± 1.1; with KSNLCLNVHGSLGICPTHDL, 0.178 ± 0.37.
For the substance VYNWGGRLKP, the amyloid nucleation score amounted to 0.147 ± 0.49.
The substance RLQRVLS returned an amyloid nucleation score of -0.458 ± 0.42.
Consider RADPVRVYSCVEVLGRALLG, for which the amyloid nucleation score result is “inactive”.
KRNLVCAISFLDSRSCRRTA gave an amyloid nucleation score of 0.119 ± 0.24.
As for VRFYVCLFLRNEMKVGRMTW, the amyloid nucleation score turned out to be 3.86 ± 0.064.
With VATLRSRHFDEHSHVVFSSS the figure was 0.236 ± 0.29; with MDRWGLFMGYCIADHMIMFD, -0.416 ± 0.48; with VYALTGMDKYGGLALYLSWR, 0.307 ± 0.44.
On to FRFRSNSMSFHNADISLLSV, for which the amyloid nucleation score entry was “inactive”.
On to TLATTGTHCVYYKNSWCKFR, for which the amyloid nucleation score is -0.498 ± 0.63.
With VNWLCRSWRSNRSLEG the figure was 4.33 ± 0.087; with GNSISFVYQSLICFNCDLSV, 7.453 ± 0.024; with ERLRSLKDNIMNFCKSRLGL, “inactive”.
Turning to DWGGVLCATVG, the amyloid nucleation score entry is “inactive”.
With LTGALREFPIYSGANDIWWR the figure was -0.796 ± 0.44; with LMSYVSSRNVSLQFIFVLPL, 5.55 ± 0.069.
IYYNGFVQCGLLIEGLITSY yielded an amyloid nucleation score of 2.39 ± 0.092.
EFSRDRSENIAGTPSLRLNQ: the amyloid nucleation score was determined as 4.56 ± 0.049.
The substance FNTILVRLPA had an amyloid nucleation score of 0.455 ± 0.55.
The same measure for SPIPFPYMYVYSMWCDTLTR: 0.505 ± 0.3.
On to ISEFHGYSMFKHEARQNGCQ, for which the amyloid nucleation score turned out to be 5.516 ± 0.033.
ILVTVNTGSFLKSILHWL: the amyloid nucleation score turned out to be 2.31 ± 0.19.
IRIGFRMHCLVIQYMNCFIS: the amyloid nucleation score amounted to 2.18 ± 0.075.
The same measure for CYSMSRVVSNGEKHYD: 0.675 ± 0.4; for EAAYLVFSCVMCTFYFEFCF: 2.55 ± 0.089.
VLESYFDTYM came in with an amyloid nucleation score of -2 ± 0.76.
In the case of KWGRCSIGT, the amyloid nucleation score entry was “inactive”.
Take LRRSTKSSCGVRCWVIEMGS: the amyloid nucleation score is 0.138 ± 1.1.
For the substance VVRVLLVWMFLLTLWHHLVN, the amyloid nucleation score is -0.158 ± 0.34.
Substance YLICD registered an amyloid nucleation score of -0.578 ± 0.76.
Consider GLVSLLYGY, for which the amyloid nucleation score is 0.185 ± 0.34.
HHLLVRMSMCC displayed an amyloid nucleation score of 4.49 ± 0.058.
With WLVTAMSMLVCLPGYESLYW the figure was 1.98 ± 0.21; with FSLFISKMN, -0.474 ± 1.
In turn, WYCRVSMRNLYIFGSIRSAY yielded an amyloid nucleation score of 5.34 ± 0.086.
On to CNMFCFDCCLWFGGMRISST, for which the amyloid nucleation score turned out to be 8.315 ± 0.042.
With VPEFCVSSCNSVNLRASE, the amyloid nucleation score was determined as 1.78 ± 0.14.
Take LHMCHWDSYSE: the amyloid nucleation score was 1.36 ± 0.35.
In the case of LRGRRRTVLPANGWCSLTAL, the amyloid nucleation score was determined as 0.453 ± 0.28.
Substance IVISWIPDNPNQMDALCRRY registered an amyloid nucleation score of 0.912 ± 0.34.
Substance YAIICKPLDDPLRKGTRWRR displayed an amyloid nucleation score of 0.477 ± 0.4.
Substance GFVVMMFNLANRYSMQGDVG returned an amyloid nucleation score of 8.234 ± 0.052.
For the substance HCNLSWSCTSGIALSRT, the amyloid nucleation score was determined as 4.54 ± 0.1.
For YILSWARFIEYDYLTPRVYS, the amyloid nucleation score is 0.356 ± 0.57.
Consider YLSRWYLKILQVSWRSVHSS, for which the amyloid nucleation score was -0.712 ± 0.36.
QVGFPWFGRQVKDYLLLYKP registered an amyloid nucleation score of 0.22 ± 0.4.
Substance SPKTDDTTVMGELYVWLTLG displayed an amyloid nucleation score of 8.338 ± 0.036.
For the substance VLMKGRDPSVSGLKIEYLGN, the amyloid nucleation score was found to be 0.193 ± 0.19.
In turn, NWGAWLNWFNLVIYGCRVIN showed an amyloid nucleation score of 6.03 ± 0.079.
The substance DPAELQ registered an amyloid nucleation score of -0.256 ± 0.79.
With VNWFRLWRTSQLLGRMMLCL the figure was 0.427 ± 0.56; with LGYSLAACNQETGNDRYMAR, 0.121 ± 0.34.
With HSAIDMWS the figure was -0.903 ± 0.44.
The same measure for SGYMAHVLVFLSEGISVPC: “inactive”; for HQDRERTRVPSIILFSLFTY: 1.71 ± 0.17.
As to NWMCMRCGVFVVLAVCLFWS, the amyloid nucleation score was found to be 3.42 ± 0.075.
RKCAPMDASSRHADSYPSQS registered an amyloid nucleation score of 1.24 ± 0.19.
In turn, LHRYRNAQVSWE returned an amyloid nucleation score of -0.512 ± 0.74.
In turn, NCGKLHQF displayed an amyloid nucleation score of 0.403 ± 0.5.
NTTSARSERR showed an amyloid nucleation score of -0.212 ± 0.37.
Substance SPNRQLVKFYFQTTYMVSRL showed an amyloid nucleation score of 3.52 ± 0.071.
Take GSLLDVTHRRKVLSKSMRGL: the amyloid nucleation score turned out to be 0.016 ± 0.35.
NICLGMCLYHGVSDAVDQSR came in with an amyloid nucleation score of 7.971 ± 0.055.
The same measure for RIQINWDEFGQDRELRVSGR: 0.75 ± 0.5; for TDKCVTTFNCYNLHRR: 1.62 ± 0.15; for FPGWGIDPTYKVKVRWMNRA: 0.566 ± 0.33.
As to FQPFVDLLDVVHRELGSLTR, the amyloid nucleation score was 4.76 ± 0.067.
KLRVFPLKESVSQGALQTVG had an amyloid nucleation score of -0.476 ± 0.44.
IQIFGVTYGSG had an amyloid nucleation score of -0.007 ± 0.79.
As to HNYAVS, the amyloid nucleation score is -0.711 ± 0.54.
YNYASYLVHIALLFLSYIRR had an amyloid nucleation score of 0.236 ± 1.1.
On to RTSAPVLRYSVCLNAKYSLG, for which the amyloid nucleation score came to 0.683 ± 0.21.
As for YICVFLDSYLGHMYRPHWRV, the amyloid nucleation score is 1.91 ± 0.13.
On to SLVYKGLCILSTLFLYFDFL, for which the amyloid nucleation score was -0.337 ± 1.
Regarding CILRPSLSFFHMPLR, the amyloid nucleation score came out at 6.962 ± 0.033.
DHLNGASRRMWLLTYFTVFE: the amyloid nucleation score entry was “inactive”.
Regarding GYTRNHSLCFFFRMLYM, the amyloid nucleation score is -1.29 ± 1.
ASVNSRSINSSGQFPPCFRK: the amyloid nucleation score is -0.434 ± 0.61.
With VGVVLFFFVLCYWVKT the figure was -0.79 ± 0.41; with YDLCGTALTVLGTVIY, 1.15 ± 0.27.
With DCRDLFLKKVWGYVGRLCEV the entry was “inactive”; with NYDRTIW, -1.01 ± 0.48.
With GKCWRVRASIFVGILFKIAG the figure was 0.486 ± 0.8; with YGSFIWWLPCNGMGLKCSRS, 1.67 ± 0.12.
